Experimental data from patent US20140080161A1, “PHOSPHATASE COUPLED KINASE ASSAY” (RESEARCH AND DIAGNOSTIC SYSTEMS, INC., priority 2010, published 2014).

Legend:
[1] = ADP hydrolysis curve with increasing amounts of phosphatase, free phosphate by Malachite Green; format: biochemical
Source text: The relative activity of the phosphatase on ADP and ATP can be measured by creating hydrolysis curves for ADP and ATP. For example, such hydrolysis curves may be created by performing a series of reactions separately combining set quantities of ADP or ATP with varying quantities of phosphatase and detecting the free phosphate produced. An example of such curves is described in Example 1 below. The resulting phosphate levels (or OD readings, which directly correspond to the phosphate levels) can be plotted against the amount of phosphatase used. The phosphate level or OD readings can be compared at the same quantity of the phosphatase to determine the relative activity of the phosphatase for ADP as compared to ATP. […] The amount of phosphatase to be used for kinase reactions is preferably selected from within the rapidly rising portion of the ADP hydrolysis curve. In addition, the relative activity of the phosphatase for ADP versus ATP is preferably compared within this rapidly rising portion of the hydrolysis curve, at or near the steepest portion of the curve. At phosphatase levels below this range, the generated signals are weak, while at phosphatase levels above this range, the ADP hydrolysis approaches completion, which could underestimate the activity of the phosphatase on ADP due to exhaustion of the substrate.
The kinase reactions were carried out in 50 μL of kinase assay buffer including 25 mM Tris, 150 mM NaCl, 5 mM MgCl2, and 5 mM CaCl2 at pH 7.5 in a 96 well plate at room temperature. Each reaction was stopped with 30 μL of Malachite Reagent A and 100 μL of water. The color was developed with 30 μL Malachite Reagent B. The plate was read at 620 nm with a multi-well plate reader. If the predicted phosphate content in the reaction was above 4,000 pmol, the reaction was diluted before phosphate detection.
In this experiment, the relative activity of rhCD39L2 on ADP and ATP was determined. In a first series of reactions, 100 nmol of 2 mM ATP was combined with increasing amounts of rhCD39L2 (0.03125 μg, 0.0625 μg, 0.125 μg, 0.25 μg, 0.5 μg) for 20 minutes. Likewise in a second series of reactions, 100 nmol of 2 mM ADP was combined with the same increasing amounts of rhCD39L2 for 20 minutes. The reactions were stopped after 20 minutes and free phosphate was measured using the Malachite Green assay as described above.
The relative activity of recombinant mouse CD 39L2 (rmCD39L2) on ADP and ATP was determined in a series of reactions similar to Example 1. 100 nmol of 2 mM ATP was combined with increasing amounts of rmCD39L2 (0.03125 μg, […], 0.125 0.25 μg, 0.5 μg). Likewise in a second series of reactions, 100 nmol of 2 mM ADP was combined with the same increasing amounts of rmCD39L2. The reactions were stopped after 5 minutes and free phosphate was measured using the Malachite Green assay as described above.
The experiment of Example 1 was repeated using recombinant human CD39L4 (rhCD39L4). 100 nmol of ATP (2 mM) was combined with increasing amounts of rhCD39L4 (0.03125 μg, 0.0625 μg, 0.125 μg, 0.25 μg, 0.5 μg, 1.0 μg). Likewise in a second series of reactions, 100 nmol of ADP (2 mM) was combined with the same increasing amounts of rhCD39L4 for 5 minutes. The reactions were stopped after 5 minutes and free phosphate was measured using the Malachite Green assay as described above. […] As such, the necessary preference of the phosphatase for ADP as compared to ATP is present.

[2] = Coupling efficiency: ADP hydrolysis in presence versus absence of ATP; format: biochemical; conditions: for Slope of ADP Hydrolysis Curve (Si): 0.2 μg rhCD39L2, 20 minutes
Source text: The coupling efficiency of a phosphatase may be determined by measuring the rates of ADP hydrolysis in the presence of ATP, and in the absence of ATP, under conditions which are otherwise the same. The coupling efficiency is the ratio of the ADP hydrolysis rate in the presence of ATP to the ADP hydrolysis rate in the absence of ATP. As exemplified in Example 3 (FIG. 4), the coupling efficiency in the presence of i mM of ATP, Ci, is equal to the ratio of the slope of the corresponding ADP hydrolysis curve in the presence of i mM of ATP, Si, to the slope of the ADP hydrolysis curve in the absence of ATP, So. The coupling efficiency may be characterized by the following formula: […]
The coupling efficiency will vary depending upon the concentration of ATP. As such, the Ci may be calculated at various ATP concentrations and the results may be plotted to give a curve of coupling efficiency versus ATP concentration. In this way, the coupling efficiency may be determined for any concentration of ATP, such as the beginning concentration of ATP used in a reaction. The coupling efficiency can be obtained once the conditions for a kinase reaction are determined and may then be used to adjust the final measured kinase activity depending upon the ATP concentration. For example, the final measured ADP production may be divided by the coupling efficiency (assuming that the ATP concentration throughout the reaction is approximately constant) in order to calculate the actual ADP production. The coupling efficiency allows for measuring the kinase activity even at high levels of ATP, such as at intracellular ATP concentration levels, about 1 mM, which may be most biologically relevant for some reactions.
This experiment measured the coupling efficiency of CD39L2, which was the ratio of the rate of ADP hydrolysis in the presence of ATP to the rate of ADP hydrolysis in the absence of ATP, under conditions which were otherwise identical. In a series of reactions, increasing amounts of ADP (0 to 15 nmol, within the coupling capacity) were hydrolyzed with 0.2 μg of rhCD39L2 in the presence of various concentrations of ATP (0, 0.156, 0.312, 0.625, 1.25, 2.5, or 5 mM). The reactions were stopped after 20 minutes and the Malachite Green assay was performed and OD readings were taken at 620 nm.
Coupling efficiency in the presence of i mM of ATP (Ci) was determined from the ratio of the slope of the ADP hydrolysis curve in the presence of i mM ATP (Si) to the slope of the ADP hydrolysis curve in the absence of ATP (S0) according to Equation 1. For each concentration of ATP, Ci was calculated. […] The coupling efficiency may then be used to correct the data obtained for any competitive inhibition that might be caused by the ATP, especially at high concentrations of ATP.

phosphate released from ADP ([1]; 0.25 μg phosphatase, 100 nmol of 2 mM ADP, 20 minutes): about 80 nmol | fold more active on ADP ([1]; Example 1, 20 minutes, allowing for two hydrolyzable phosphates of ATP): about 70 fold | fold more phosphate released from ADP than from ATP ([1]; rising phases of the ADP hydrolysis curve, 20 minutes): 35 fold
B1: rhCD39L2: recombinant human CD39L2, nucleotide phosphatase preferring ADP over ATP, used for coupling (protein, UniProt O75354 1-484, looked up)
Ectonucleoside triphosphate …: MKKGIRYETSRKTSYIFQQPQHGPWQTRMRKISNHGSLRVAKVAYPLGLCVGVFIYVAYIKWHRATATQAFFSITRAAPGARWGQQAHSPLGTAADGHEVFYGIMFDAGSTGTRVHVFQFTRPPRETPTLTHETFKALKPGLSAYADDVEKSAQGIRELLDVAKQDIPFDFWKATPLVLKATAGLRLLPGEKAQKLLQKVKKVFKASPFLVGDDCVSIMNGTDEGVSAWITINFLTGSLKTPGGSSVGMLDLGGGSTQIAFLPRVEGTLQASPPGYLTALRMFNRTYKLYSYSYLGLGLMSARLAILGGVEGQPAKDGKELVSPCLSPSFKGEWEHAEVTYRVSGQKAAASLHELCAARVSEVLQNRVHRTEEVKHVDFYAFSYYYDLAAGVGLIDAEKGGSLVVGDFEIAAKYVCRTLETQPQSSPFSCMDLTYVSLLLQEFGFPRSKVLKLTRKIDNVETSWALGAIFHYIDSLNRQKSPAS
coupling efficiency ([2]; 0.2 mM ATP, based on data of Example 3): 0.9 | coupling efficiency ([2]; 2 mM ATP, based on data of Example 3): 0.51 | coupling efficiency ([2]; 4 mM ATP, predicted from data of Example 3 (FIG. 5)): 0.4 | Coupling Efficiency (Ci) ([2]; ATP 0 mM): 1.00 | Slope of ADP Hydrolysis Curve (Si) ([2]; ATP 0 mM): 0.280 | Coupling Efficiency (Ci) ([2]; ATP 0.156 mM): 0.97 | Slope of ADP Hydrolysis Curve (Si) ([2]; ATP 0.156 mM): 0.271 | Coupling Efficiency (Ci) ([2]; ATP 0.312 mM): 0.74 | Slope of ADP Hydrolysis Curve (Si) ([2]; ATP 0.312 mM): 0.207 | Coupling Efficiency (Ci) ([2]; ATP 0.625 mM): 0.61 | Slope of ADP Hydrolysis Curve (Si) ([2]; ATP 0.625 mM): 0.170 | Coupling Efficiency (Ci) ([2]; ATP 1.25 mM): 0.56 | Slope of ADP Hydrolysis Curve (Si) ([2]; ATP 1.25 mM): 0.157 | Coupling Efficiency (Ci) ([2]; ATP 2.50 mM): 0.48 | Slope of ADP Hydrolysis Curve (Si) ([2]; ATP 2.50 mM): 0.134 | Coupling Efficiency (Ci) ([2]; ATP 5.0 mM): 0.34 | Slope of ADP Hydrolysis Curve (Si) ([2]; ATP 5.0 mM): 0.096
